Laboratory results from patent publication US20140142040A1.
Read-outs that look alike come from different tables or passages of the source.

Tests used:
[1] = target: T1, human activated protein C (human), P04070
T1 chain 1: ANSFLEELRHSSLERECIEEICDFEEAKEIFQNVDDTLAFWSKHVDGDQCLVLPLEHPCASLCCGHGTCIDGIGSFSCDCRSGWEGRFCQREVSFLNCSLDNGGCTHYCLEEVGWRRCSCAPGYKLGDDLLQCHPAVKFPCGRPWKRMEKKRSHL
T1 chain 2: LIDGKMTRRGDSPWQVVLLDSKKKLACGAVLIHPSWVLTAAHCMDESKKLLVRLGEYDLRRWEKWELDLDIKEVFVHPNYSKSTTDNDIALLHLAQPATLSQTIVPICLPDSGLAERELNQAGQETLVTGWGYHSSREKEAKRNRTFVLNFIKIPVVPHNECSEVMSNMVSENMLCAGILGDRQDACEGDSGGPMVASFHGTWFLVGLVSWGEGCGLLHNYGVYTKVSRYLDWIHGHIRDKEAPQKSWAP

[2] = target: T1, human activated protein C (human), …
[3] = target: T1, human activated protein C (human), …
[4] = target: human factor XIa (human), P03951
[5] = target: T2, human plasmin (human), P00747
T2 chain: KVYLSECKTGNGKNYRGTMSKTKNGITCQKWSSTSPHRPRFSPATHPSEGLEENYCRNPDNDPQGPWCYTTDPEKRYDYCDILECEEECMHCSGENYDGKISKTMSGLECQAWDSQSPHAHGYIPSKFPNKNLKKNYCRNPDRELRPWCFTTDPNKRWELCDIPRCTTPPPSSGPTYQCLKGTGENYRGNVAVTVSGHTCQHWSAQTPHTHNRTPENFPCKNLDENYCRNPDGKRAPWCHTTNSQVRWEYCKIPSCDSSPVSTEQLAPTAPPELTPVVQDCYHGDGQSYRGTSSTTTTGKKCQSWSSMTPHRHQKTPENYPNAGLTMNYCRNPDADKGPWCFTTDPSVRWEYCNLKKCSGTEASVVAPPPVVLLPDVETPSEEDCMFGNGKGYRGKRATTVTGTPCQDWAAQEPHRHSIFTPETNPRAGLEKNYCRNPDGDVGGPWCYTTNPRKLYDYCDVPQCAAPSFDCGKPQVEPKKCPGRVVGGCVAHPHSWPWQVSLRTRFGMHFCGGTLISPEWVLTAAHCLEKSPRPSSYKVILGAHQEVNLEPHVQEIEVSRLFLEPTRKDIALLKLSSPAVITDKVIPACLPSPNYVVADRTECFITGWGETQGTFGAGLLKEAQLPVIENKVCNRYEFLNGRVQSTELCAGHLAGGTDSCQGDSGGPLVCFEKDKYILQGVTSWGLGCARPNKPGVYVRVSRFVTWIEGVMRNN

[6] = target: T1, human activated protein C (human), …; assay: cell-based or functional assay

B1: DrKIn-I (Daboia russelii Kunitz Inhibitor-I), A8Y7N4 25-90 (protein)
chain: QDRPKFCNLAPESGRCRGHLRRIYYNPDSNKCEVFFYGGCGGNDNNFETRKKCRQTCGAPRKGRPT
modifications: not checked
How did the kon [1] turn out when B1 was run?
Its kon is 1.7e+07 M⁻¹ s⁻¹.

And the Kd [2]?
The Kd was 2.6 nM.

And the koff [2]?
The koff was 0.034 s⁻¹.

And the kon [2]?
Its kon is 1.3e+07 M⁻¹ s⁻¹.

What about the Ki [3] of the same binder?
Its Ki is 0.053 nM.

What about the Ki [4] of the same binder?
Its Ki is 1.33 nM.

What about the fold of Ki against the Ki for APC inhibition [4] of the same binder?
Its fold of Ki against the Ki for APC inhibition is over 25 fold.

What about the Ki [5] of the same binder?
Its Ki is 1.56 nM.

And the fold of Ki against the Ki for APC inhibition [5]?
The fold of Ki against the Ki for APC inhibition was over 25 fold.

What about the fold reduction of the IC50 by heparin [6] of the same binder?
Its fold reduction of the IC50 by heparin is 25 fold.
